In the RNAGym collection of RNA variant scans (doi:10.7554/elife.90254):

B1: OR4K15 (parent)
chain: GUUAACGGUCAUAGGCCAUGGAAACUAGGAGCACCAUUUCGCUGCCAGUGAAGAAAUGAACAAAGAAAAUCUGGGCCAGGCAGGCAUCAAAAGAAAUAGUCUUGCGCUCAACCAGAAAGUCUGUAAUCAUUUUAAGGGUA

Variants of: B1
Assay: self-cleavage, relative activity (ratio to wild type); higher = more cleavage; in vitro, sequencing; the parent is a self-cleaving ribozyme
With GUUAACGGUCAUAGGCCAUGGAAACUAGGAGCACCAUCUCGCUGCCAGUGAAGAAAUGAACAAAGAAGAUCUGGGCCAGGCAGGCAUCAAAAGAAAUAGUCUUGCGCUCAACCAGAAAGUCUGUAAUCAUUUUAAGGGUA [U38C A68G] the self-cleavage was 0.84. GUUAACGGUCAUAGGCCAUGGAAACUAGGAGCACCAUCUCGCUGCCAGUGAAGAAAUGAACGAAGAAAAUCUGGGCCAGGCAGGCAUCAAAAGAAAUAGUCUUGCGCUCAACCAGAAAGUCUGUAAUCAUUUUAAGGGUA [U38C A62G] gave a self-cleavage of 1.37. Work on GUUAACGGUCAUAGGCCAUGGAAACUAGGAGCACCAUCUCGCUGCCAGUGAAGGAAUGAACAAAGAAAAUCUGGGCCAGGCAGGCAUCAAAAGAAAUAGUCUUGCGCUCAACCAGAAAGUCUGUAAUCAUUUUAAGGGUA [U38C A54G] yielded a self-cleavage of 1.17. GUUAACGGUCAUAGGCCAUGGAAACUAGGAGCACCAUCUCGCUGCCAGUGAAGUAAUGAACAAAGAAAAUCUGGGCCAGGCAGGCAUCAAAAGAAAUAGUCUUGCGCUCAACCAGAAAGUCUGUAAUCAUUUUAAGGGUA [U38C A54U] showed a self-cleavage of 2.56. In the case of GUUAACGGUCAUAGGCCAUGGAAACUAGGAGCACCAUAUCGCUGCCAGUGAAGAAAUGAACAAAGAAAAUCUGGGCCAGGCAGGCAUCAAAAGAAAUAGUCCUGCGCUCAACCAGAAAGUCUGUAAUCAUUUUAAGGGUA [U38A U102C], the self-cleavage is reported as 1.99. With GUUAACGGUCAUAGGCCAUGGAAACUAGGAGCACCAUCUCGCUGCCAGUGAAGAAAUGAACAAAGAAAAUCUGGGCCGGGCAGGCAUCAAAAGAAAUAGUCUUGCGCUCAACCAGAAAGUCUGUAAUCAUUUUAAGGGUA [U38C A78G] the self-cleavage was 0.2. For GUUAACGGUCAUAGGCCAUGGAAACUAGGAGCACCAUCUCGCUGCCAGUGAAGAAAUGAACAAAGAAAAUCUGGGCCUGGCAGGCAUCAAAAGAAAUAGUCUUGCGCUCAACCAGAAAGUCUGUAAUCAUUUUAAGGGUA [U38C A78U], the self-cleavage was 0.35. GUUAACGGUCAUAGGCCAUGGAAACUAGGAGCACCAUCUCGCUGCCAGUGAAGAAAUGAACAAAGAAAAUCUGGGCCCGGCAGGCAUCAAAAGAAAUAGUCUUGCGCUCAACCAGAAAGUCUGUAAUCAUUUUAAGGGUA [U38C A78C] gave a self-cleavage of 0.46. Variant GUUAACGGUCAUAGGCCAUGGAAACUAGGAGCACCAUAUCGCUGCCAGUGAAGAAAUGAACAAAGAAAAUCUGGGCCAGGCAUGCAUCAAAAGAAAUAGUCUUGCGCUCAACCAGAAAGUCUGUAAUCAUUUUAAGGGUA [U38A G83U] has a self-cleavage of 0.84. For GUUAACGGUCAUAGGCCAUGGAAACUAGGAGCACCAUAUCGCUGCCAGUGAAGAAAUGAACAAAGAAAAUCUGGGCCAGGCAGGCAUCAAAAGAAAUAGCCUUGCGCUCAACCAGAAAGUCUGUAAUCAUUUUAAGGGUA [U38A U100C], the self-cleavage was 2.23. GUUAACGGUCAUAGGCCAUGGAAACUAGGAGCACCAUAUCGCUGCCAGUGAAGAAAUGAACAAAGAAAAUCUGGGCCAGGCAGGCAUCAAAAGAAAUAGUCUUGCGCUCAACCAGAAAGUCUGUAAUCAUUUUAAGGGUU [U38A A140U] showed a self-cleavage of 1.08. For GUUAACGGUCAUAGGCCAUGGAAACUAGGAGCACCAUAUCGCUGCCAGUGAAGAAAUGAACAAAGAAAAUCUGGGCCAGGCAGGCAUCAAAAGAAAUAGUCUUGCGCUCAACCAGAGAGUCUGUAAUCAUUUUAAGGGUA [U38A A117G], the self-cleavage was 2.22. For GUUAACGGUCAUAGGCCAUGGAAACUAGGAGCACCAUAUCGCUGCCAGUGAAGAAAUGAACAAAGAAAAUCUGGGCCAGGCAGGCAUCAAAAGAAAUAGUCUUGCGCUCAACCAGAUAGUCUGUAAUCAUUUUAAGGGUA [U38A A117U], the self-cleavage was 0.73. Work on GUUAACGGUCAUAGGCCAUGGAAACUAGGAGCACCAUAUCGCUGCCAGUGAAGAAAUGAACAAAGAAAAUCUGGGCCAGGCAGGCAUCAAAAGAAAUAGUCUUGCGCUCAACCAGAAAGCCUGUAAUCAUUUUAAGGGUA [U38A U120C] yielded a self-cleavage of 1.12. For GUUAACGGUCAUAGGCCAUGGAAACUAGGAGCACCAUCUCGCUGCCAGUGAAGAAAUGAACAAAGAAAAUCUGGGCCAGGCAGGCGUCAAAAGAAAUAGUCUUGCGCUCAACCAGAAAGUCUGUAAUCAUUUUAAGGGUA [U38C A86G], the self-cleavage was 1.65. Variant GUUAACGGUCAUAGGCCAUGGAAACUAGGAGCACCAUCUCGCUGCCAGUGAAGAAAUGAACAAAGAAAAUCUGGGCCAGGCAGGCCUCAAAAGAAAUAGUCUUGCGCUCAACCAGAAAGUCUGUAAUCAUUUUAAGGGUA [U38C A86C] has a self-cleavage of 1.31. Work on GUUAACGGUCAUAGGCCAUGGAAACUAGGAGCACCAUCUCGCUGCCAGUGAAGAAAUGAACAAAGAAAAUCUGGGCCAGGCAGGCAUCACAAGAAAUAGUCUUGCGCUCAACCAGAAAGUCUGUAAUCAUUUUAAGGGUA [U38C A90C] yielded a self-cleavage of 1.62. GUUAACGGUCAUAGGCCAUGGAAACUAGGAGCACCAUCUCGCUGCCAGUGAAGAAAUGAACAAAGAAAAUCUGGGCCAGGCAGGCAUCAGAAGAAAUAGUCUUGCGCUCAACCAGAAAGUCUGUAAUCAUUUUAAGGGUA [U38C A90G] showed a self-cleavage of 1.4. GUUAACGGUCAUAGGCCAUGGAAACUAGGAGCACCAUAUCGCUGCCAGUGAAGAAAUGAACAAAGAAAAUCUGGGCCAGGCAGGCAUCAAAAGAAAUAGUCUUGCGCUCAACCGGAAAGUCUGUAAUCAUUUUAAGGGUA [U38A A114G] showed a self-cleavage of 0.96. For GUUAACGGUCAUAGGCCAUGGAAACUAGGAGCACCAUAUCGCUGCCAGUGAAGAAAUGAACAAAGAAAAUCUGGGCCAGGCAGGCAUCAAAAGAAAUAGUCUUGCGCCCAACCAGAAAGUCUGUAAUCAUUUUAAGGGUA [U38A U108C], the self-cleavage was 0.01. Work on GUUAACGGUCAUAGGCCAUGGAAACUAGGAGCACCAUCUCGCUGCCAGUGAAGAAAUGACCAAAGAAAAUCUGGGCCAGGCAGGCAUCAAAAGAAAUAGUCUUGCGCUCAACCAGAAAGUCUGUAAUCAUUUUAAGGGUA [U38C A60C] yielded a self-cleavage of 2.1. GUUAACGGUCAUAGGCCAUGGAAACUAGGAGCACCAUAUCGCUGCCAGUGAAGAAAUGAACAAAGAAAAUCUGGGCCAGGCAGGCAUCAAAAGAAAUAGUCUUGCGCUCAACCAGAAAGUCUGUAAUCAUCUUAAGGGUA [U38A U131C] showed a self-cleavage of 1.16. GUUAACGGUCAUAGGCCAUGGAAACUAGGAGCACCAUCUCGCUGCCAGUGACGAAAUGAACAAAGAAAAUCUGGGCCAGGCAGGCAUCAAAAGAAAUAGUCUUGCGCUCAACCAGAAAGUCUGUAAUCAUUUUAAGGGUA [U38C A52C] gave a self-cleavage of 0.68. GUUAACGGUCAUAGGCCAUGGAAACUAGGAGCACCAUCUCGCUGCCAGUGAGGAAAUGAACAAAGAAAAUCUGGGCCAGGCAGGCAUCAAAAGAAAUAGUCUUGCGCUCAACCAGAAAGUCUGUAAUCAUUUUAAGGGUA [U38C A52G] showed a self-cleavage of 1.53. For GUUAACGGUCAUAGGCCAUGGAAACUAGGAGCACCAUCUCGCUGCCAGUGAAGAAAUGAACAAGGAAAAUCUGGGCCAGGCAGGCAUCAAAAGAAAUAGUCUUGCGCUCAACCAGAAAGUCUGUAAUCAUUUUAAGGGUA [U38C A64G], the self-cleavage was 1.45. GUUAACGGUCAUAGGCCAUGGAAACUAGGAGCACCAUAUCGCUGCCAGUGAAGAAAUGAACAAAGAAAAUCUGGGCCAGGCAGGCACCAAAAGAAAUAGUCUUGCGCUCAACCAGAAAGUCUGUAAUCAUUUUAAGGGUA [U38A U87C] showed a self-cleavage of 1.56. In the case of GUUAACGGUCAUAGGCCAUGGAAACUAGGAGCACCAUCUCGCUGCCAGUGAAGAAAUGAACAAAGAAAAUCUGGGCCAGGCAGGCAUCUAAAGAAAUAGUCUUGCGCUCAACCAGAAAGUCUGUAAUCAUUUUAAGGGUA [U38C A89U], the self-cleavage is reported as 2.15. Variant GUUAACGGUCAUAGGCCAUGGAAACUAGGAGCACCAUCUCGCUGCCAGUGAAGAAAUGAACAAAGAAAAUCUGGGCCAGGCAGGCAUCGAAAGAAAUAGUCUUGCGCUCAACCAGAAAGUCUGUAAUCAUUUUAAGGGUA [U38C A89G] has a self-cleavage of 1.9. GUUAACGGUCAUAGGCCAUGGAAACUAGGAGCACCAUCUCGCUGCCAGUGAAGAAAUGAACAAAGAAAAUCUGGGCCAGGCAGGCAUCCAAAGAAAUAGUCUUGCGCUCAACCAGAAAGUCUGUAAUCAUUUUAAGGGUA [U38C A89C] gave a self-cleavage of 1.6. Work on GUUAACGGUCAUAGGCCAUGGAAACUAGGAGCACCAUCUCGCUGCCAGUGAAGAAAUGGACAAAGAAAAUCUGGGCCAGGCAGGCAUCAAAAGAAAUAGUCUUGCGCUCAACCAGAAAGUCUGUAAUCAUUUUAAGGGUA [U38C A59G] yielded a self-cleavage of 0.61. Work on GUUAACGGUCAUAGGCCAUGGAAACUAGGAGCACCAUAUCGCCGCCAGUGAAGAAAUGAACAAAGAAAAUCUGGGCCAGGCAGGCAUCAAAAGAAAUAGUCUUGCGCUCAACCAGAAAGUCUGUAAUCAUUUUAAGGGUA [U38A U43C] yielded a self-cleavage of 1.3. Variant GUUAACGGUCAUAGGCCAUGGAAACUAGGAGCACCAUAUCGCAGCCAGUGAAGAAAUGAACAAAGAAAAUCUGGGCCAGGCAGGCAUCAAAAGAAAUAGUCUUGCGCUCAACCAGAAAGUCUGUAAUCAUUUUAAGGGUA [U38A U43A] has a self-cleavage of 1.61. In the case of GUUAACGGUCAUAGGCCAUGGAAACUAGGAGCACCAUAUCGCUGCCAGUGAAGAAAUGAACAAAGAAAAUCUGGGCCAGGCAGGCAUCAAAAGAAAUAGUCUUGCGCUCAACCAGAAAGUCUGUAAUCACUUUAAGGGUA [U38A U130C], the self-cleavage is reported as 1.47. With GUUAACGGUCAUAGGCCAUGGAAACUAGGAGCACCAUCUCGCUGCCGGUGAAGAAAUGAACAAAGAAAAUCUGGGCCAGGCAGGCAUCAAAAGAAAUAGUCUUGCGCUCAACCAGAAAGUCUGUAAUCAUUUUAAGGGUA [U38C A47G] the self-cleavage was 0.74. In the case of GUUAACGGUCAUAGGCCAUGGAAACUAGGAGCACCAUCUCGCUGCCUGUGAAGAAAUGAACAAAGAAAAUCUGGGCCAGGCAGGCAUCAAAAGAAAUAGUCUUGCGCUCAACCAGAAAGUCUGUAAUCAUUUUAAGGGUA [U38C A47U], the self-cleavage is reported as 0.77. GUUAACGGUCAUAGGCCAUGGAAACUAGGAGCACCAUCUCGCUGCCCGUGAAGAAAUGAACAAAGAAAAUCUGGGCCAGGCAGGCAUCAAAAGAAAUAGUCUUGCGCUCAACCAGAAAGUCUGUAAUCAUUUUAAGGGUA [U38C A47C] showed a self-cleavage of 1.99. GUUAACGGUCAUAGGCCAUGGAAACUAGGAGCACCAUCUCGCUGCCAGUGAAGAAAUGAACAUAGAAAAUCUGGGCCAGGCAGGCAUCAAAAGAAAUAGUCUUGCGCUCAACCAGAAAGUCUGUAAUCAUUUUAAGGGUA [U38C A63U] showed a self-cleavage of 0.76. For GUUAACGGUCAUAGGCCAUGGAAACUAGGAGCACCAUAUCGCUGCCAGUGAAGAAAUGAACAAAGAAAAUCUGGGCCAGGCAGGCAUCAAAAGAAACAGUCUUGCGCUCAACCAGAAAGUCUGUAAUCAUUUUAAGGGUA [U38A U97C], the self-cleavage was 1.67. Variant GUUAACGGUCAUAGGCCAUGGAAACUAGGAGCACCAUCUCGCUGCCAGUGAAGAAAUGAACAAAGAAAUUCUGGGCCAGGCAGGCAUCAAAAGAAAUAGUCUUGCGCUCAACCAGAAAGUCUGUAAUCAUUUUAAGGGUA [U38C A69U] has a self-cleavage of 0.9. Work on GUUAACGGUCAUAGGCCAUGGAAACUAGGAGCACCAUCUCGCUGCCAGUGAAGAAAUGAACAAAGAUAAUCUGGGCCAGGCAGGCAUCAAAAGAAAUAGUCUUGCGCUCAACCAGAAAGUCUGUAAUCAUUUUAAGGGUA [U38C A67U] yielded a self-cleavage of 2.33. Work on GUUAACGGUCAUAGGCCAUGGAAACUAGGAGCACCAUCUCGCUGCCAGUGAAGAAAUGAACAAAGAGAAUCUGGGCCAGGCAGGCAUCAAAAGAAAUAGUCUUGCGCUCAACCAGAAAGUCUGUAAUCAUUUUAAGGGUA [U38C A67G] yielded a self-cleavage of 1.55.
